The record followed here is patent publication US9090686B2, “Antibodies for the treatment of HIV” (Pierre Fabre Medicament, priority 2009, dated 2015).

Residue numbers refer to the chain shown, from its start. In names and notes the source's numbering stands.

Assay [1] deals with HIV-1 primary isolate 89.6 (dual X4/R5 virus). Nature of the assay: Neutralization assay, multiple rounds of replication on primary PBMC, isolate 89.6. Particulars: single agent; 90% decrease of viral titer, multiple rounds, day 7 p24 ELISA. The class given is cell-based. Here is the method: This assay that combines serial dilutions of c515H7 Mab or Maraviroc or combination of both with serial dilutions of virus, analyzes multiple rounds of infection on PBMC (peripheral blood mononuclear cells). Briefly, quadruplicate 25-μl aliquots of serial dilutions (twofold) of c515H7 Mabs or Maraviroc or combination of both were each incubated with 25 μl of serial dilutions of virus in prehydrated 96-well filter plates (1.25-μm pore size, Durapor Dv; Millipore, Molsheim, France). A control titration of the virus (25 μl of RPMI replacing the diluted c515H7 Mabs or Maraviroc) was performed on the same plate as the titrations in the presence of dilutions of the c515H7 Mabs or Maraviroc or combination of both. After 1 h at 37° C., 25 μl of PHA-stimulated PBMC at a concentration of 4×10^6 cells/ml (pool of PHA activated PBMC from five healthy donors) was added to achieve a 75-μl final culture volume of RPMI, 10% fetal calf serum (FCS), and 20 IU of interleukin-2 (IL-2) per ml (R&D System). After 24 h at 37° C., 100 μl of the same culture medium was added. Two washings (200 μl of RPMI each) were performed by filtration on day 4 to remove the c515H7 Mabs and Maraviroc, and 200 μl of fresh culture medium was added. On day 7, the presence of p24 in the culture supernatants was measured by ELISA and compared to that of the negative controls (cultures infected with dilutions of virus and maintained in the presence of 10^−6 M zidovudine [AZT]) to determine positive wells. […]
This assay that combines serial dilutions of hz515H7 Mab or Maraviroc or combination of both with serial dilutions of virus, analyzes multiple rounds of infection on PBMC (peripheral blood mononuclear cells). […] On day 7, the presence of p24 in the culture supernatants was measured by ELISA and compared to that of the negative controls (cultures infected with dilutions of virus and maintained in the presence of 10^−6 M zidovudine [AZT]) to determine positive wells. […]
Background: In an ELISA, binding on a coated surface is turned into a signal by an enzyme label.

The target in assay [2] is T1, CXCR4 homodimer (Homo sapiens, UniProt P61073).
T1 construct: expressed in transfected cells; host or cells: HEK293, transient transfection
Nature of the assay: BRET on HEK293 cells expressing CXCR4/Rluc+CXCR4/YFP. The class given is cell-based.
Description: This functional assay allows to evaluate the conformational changes induced upon SDF-1 and/or 515H7 Mab binding to CXCR4 receptor at the level of CXCR4 homodimer.
(§1) Expression vectors for the investigated interaction partners were constructed as fusion proteins with the corresponding dye (Renilla reniformis luciferase, Rluc and Yellow fluorescent protein, YFP) by applying conventional molecular biology techniques. Two days prior performing BRET experiments, HEK293 cells were transiently transfected with expression vectors coding for the corresponding BRET partners: [CXCR4/Rluc+CXCR4/YFP] to study CXCR4 homodimerization. The day after, cells were distributed in poly-lysine pre-coated white 96 MW plates in complete culture medium [DMEM supplemented with 10% FBS]. Cells were first cultivated at 37° C. with CO2 5% in order to allow cell attachment to the plate. Cells were then starved with 200 μl DMEM/well overnight Immediately prior to the BRET experiment, DMEM was removed and cells were quickly washed with PBS. Cells were then incubated in PBS in the presence or absence of antibody, 10 min at 37° C. prior to the addition of coelenterazine H 5 μM with or without SDF-1 300 nM in a final volume of 50 μl. After incubation for further 10 minutes at 37° C., light-emission acquisition at 485 nm and 530 nm was initiated using the Mithras LB940 multilabel reader (Berthold) (1 s/wavelength/well repeated 15 times at room temperature).
Calculation of BRET ratio was performed as previously described (Angers et al., 2000): [(emission530 nm)−(emission485 nm)×Cf]/(emission485 nm), where Cf=(emission530 nm)/(emission485 nm) for cells expressing the Rluc fusion protein alone under the same experimental conditions. […] For sake of readability, results are expressed in mi11iBRET units (mBU); mBU corresponds to the BRET ratio multiplied by 1000.
This functional assay allows to evaluate the conformational changes induced upon SDF-1 and/or c515H7 Mab binding to CXCR4 receptor at the level of CXCR4 homodimer.
as §1, with “Cells were then incubated in PBS in the presence or absence of antibody, 10 min at 37° C. prior to the addition of coelenterazine H 5 μM with or without SDF-1 300 nM in a final volume of 50 μl.” left out
Calculation of BRET ratio was performed as previously described (Angers et al., 2000): [(emission530 nm)−(emission485 nm)×Cf]/(emission485 nm), where Cf=(emission530 nm)/(emission485 nm) for cells expressing the Rluc fusion protein alone under the same experimental conditions. […] For sake of readability, results are expressed in milliBRET units (mBU); mBU corresponds to the BRET ratio multiplied by 1000. […]
On the technique in general: Bioluminescence resonance energy transfer reports proximity on the nanometre scale.

The target in assay [3] is T2, human CXCR4 (Homo sapiens, UniProt P61073). Nature of the assay: SDF-1-induced calcium release in CHO-CXCR4 cells. The class given is cell-based. Also noted: expressed in transfected cells. Particulars: SDF-1 100 nM, recombinant CHO/CXCR4, at about 40 sec. From the text:
This functional assay was designed to monitor CXCR4 receptor signaling via stimulation of the phospholipase C pathway, inducing calcium liberation from intracellular stores from the endoplasmic reticulum.
CHO-K1 cells, stably and constitutively expressing human CXCR4 receptor were obtained upon transfection of naïve CHO-K1 cells (ATCC CCL-61) with a mammalian expression vector carrying the whole coding sequence of human CXCR4 receptor (RefSeq NM_003467). Cells were propagated in complete culture medium [DMEM-Ham's F12 supplemented with 5% fetal calf serum (FCS) and 500 μg/ml of geneticin]. Cells were plated in black 96MW plates at a density of 100,000 cells/well in appropriate culture medium. Cells were starved overnight before conducting the experiments. Cells are loaded with the fluorescent calcium dye (Fluo-4 No Wash, Invitrogen US) in loading buffer [HBSS 1×, HEPES 20 mM, Probenicid acid 25 mM] for 30 min. at 37° C. followed by 30 min. at 25° C. Stimulation by SDF-1 was performed by direct injection into each well. For antagonism experiments, 10 μl of Mab solution are added directly into the loading buffer at least 10 min. before SDF-1. Kinetic fluorescence measurements are performed on a multi-mode fluorescence microplate reader Mithras LB940 (Berthold) using the following settings: excitation at 485 nm, emission at 535 nm, excitation energy at 10000 arbitrary units. Fluorescence in each well is recorded during 0.1 second every second and for a time period of 20 sec. prior SDF-1 injection (basal signal). Then 20 μl of SDF-1 are injected and data recording follows for a time period of 2 min. Each experimental condition is performed in duplicate. Values for each well are first corrected by subtracting the basal fluorescence and the fluorescence emitted by a control well without cells. Relative data are expressed as a percentage of the maximal stimulation obtained by SDF-1 (100 nM).

Assay [4] deals with T2, human CXCR4. The experiment in a line: Cross blocking of biotinylated murine 515H7 on CXCR4 transfected NIH3T3 cells, flow cytometry. Also noted: expressed in transfected cells; host or cells: NIH3T3 (mouse fibroblasts). The class given is binding. Here is the method:
FIG. 19: Cross blocking of the biotinylated murine antibody 515H7 by the chimeric 515H7 and different variants of the humanized 515H7. The activity of the humanized variants of 515H7 (hz515H7) to cross block the parental murine antibody 515H7 was evaluated by flow cytometry using CXCR4 transfected NIH3T3 cells. The activity of the humanized variants was compared to the chimeric 515H7.
Binding of humanized variants of 515H7 was determined on a NIH3T3 cell line stably transfected with human CXCR4. The binding activity was evaluated by a competition assay with the biotinylated mouse antibody. In a second attempt, humanized antibodies were evaluated for their ability to inhibit binding of biotinylated SDF-1 to RAMOS cells. RAMOS cells were chosen because of their high expression of CXCR4 and low expression of CXCR7 and SDF-1.
In a first series of experiments, the anti-CXCR4 binding activities of the three first humanized variants were analysed. The VH variant 1 (VH1) was combined with the murine VL and these constructs were evaluated in their capacity to inhibit the binding of a biotinylated murine 515H7 parental antibody. The amino acid sequence of the variable domain of VH1 comprises the SEQ ID No. 90 whereas the nucleotide sequence comprises the SEQ ID No. 91. […]

T2 sequence (P61073 whole entry): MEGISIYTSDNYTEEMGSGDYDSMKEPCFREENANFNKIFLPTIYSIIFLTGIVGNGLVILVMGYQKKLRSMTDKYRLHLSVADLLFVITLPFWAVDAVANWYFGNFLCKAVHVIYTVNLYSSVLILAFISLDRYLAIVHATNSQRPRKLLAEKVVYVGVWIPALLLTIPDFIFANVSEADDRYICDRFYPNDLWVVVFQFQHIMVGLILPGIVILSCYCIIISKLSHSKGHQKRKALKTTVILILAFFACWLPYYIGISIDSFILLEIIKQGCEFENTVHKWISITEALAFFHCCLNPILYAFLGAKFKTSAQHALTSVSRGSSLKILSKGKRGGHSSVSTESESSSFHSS
T1 sequence (P61073 whole entry): as above
T1 sequence (P61073 whole entry): as above

With Maraviroc [reference compound], the IC90 (as a rule, the concentration at which the effect reaches the 90% level) in assay [1] is over 50 µg/mL.

With “SDF-1: Stromal-cell-Derived Factor-1, the natural ligand of CXCR4 [reference compound]”, the “increase of BRET signal” value in assay [2] (SDF-1 300 nM) is recorded as “about 20%”. In addition, in assay [3], the “maximal intensity of calcium signal” value is over 140 % over basal fluorescence.

B1: hz515H7 VH1 VL2: humanized VH variant 1 (no back mutations) combined with variant 2 of VL (antibody, V domains shown)
VH: EVQLVESGGGLVQPGRSLRLSCTASGFTFTDNYMSWVRQAPGKGLEWVGFIRNKANGYTTEYAASVKGRFTISRDDSKSIAYLQMNSLKTEDTAVYYCARDVGSNYFDYWGQGTLVTVSS
VL: DIVMTQSPSSLAVSLGERATMSCKSSQSLFNSRTRKNYLAWYQQKPGQSPKLLIYWASARDSGVPARFTGSGSETYFTLTISRVQAEDLAVYYCMQSFNLRTFGQGTKVEIK
B1: the “cross blocking of biotinylated murine 515H7, compared to chimeric 515H7” value in assay [4] is reported as “No reduction in the activity”.

B2: hz515H7 VH1 D76N VL2: humanized 515H7 Mab; variable domains VH1 D76N (SEQ ID No. 64) and VL2 (SEQ ID No. 65) (antibody, listed as Mus musculus, V domains shown)
VH: B1 VH with D76N
VL: B1 VL
With B2, in assay [2] (SDF-1 100 nM), the “inhibition of SDF-1-induced BRET increase” value is “about 88%”.
